Columns and labels:
[1] = Molecular weight and coupling product components (DAR) by LC-MS; settings: coupling product without HIC purification, protein 4.1 mg/mL
Text: In this example, liquid chromatography-mass spectrometry (LC-MS) was used to analyze the protein sample for molecular weight. Those skilled in the art can use different models of liquid chromatography (LC) and mass spectrometer (MS) to establish similar analytical methods according to the technical instructions and through experimental exploration. Only representative methods are listed in this example.
In certain specific embodiments, determination of the molecular weight of a protein sample required desaccharification on the sample to remove modifications such as saccharide chains, for example, the sample was processed with glycosidase PNGase F (NEB, #P0705L) at 37° C. for at least 4 h. For example, in all examples of the present invention, when the molecular weight of protein samples was determined, unless otherwise emphasized, the protein samples to be tested were subjected to desaccharification by the glycosidase PNGase F.
In certain specific embodiments, determination of the reduced molecular weight of a protein sample required reduction on the sample, for example, the sample was processed with […] dithiothreitol (DTT) at 37° C. for 10 min. For example, in all examples of the present invention, the samples after reduction were called reduced samples, and the samples without reduction were called non-reduced samples.
Buffer A was 0.1% formic acid FA dissolved in water, and buffer B was 0.1% formic acid FA dissolved in acetonitrile. Injection: about 1 μg; flow rate: 0.3 mL/min; and operation temperature: 80° C. When reduced samples were tested, buffer A and buffer B were mixed within 12 min to form a linear gradient: using 10-60% B for the first 8 min and 80% B for the last 4 min. When non-reduced samples were tested, buffer A and buffer B were mixed within 9 min to form a linear gradient: using 15-60% B for the first 6 min and 80% B for the last 3 min.
Buffer A was 0.1% formic acid FA dissolved in water, and buffer B was 0.1% formic acid FA dissolved in acetonitrile. Injection: about 10 μL; flow rate: 0.2-0.5 mL/min; and operation temperature: 80° C. […]

[2] = molecular target: T1, CHOK1-hCD47 cells highly expressing human CD47 (Homo sapiens, UniProt Q08722); test: FACS binding to cells highly expressing CD47; settings: flow cytometry FACS
T1 construct: host or cells: CHOK1-hCD47 (CHO-K1)
T1 sequence (Q08722 19-323): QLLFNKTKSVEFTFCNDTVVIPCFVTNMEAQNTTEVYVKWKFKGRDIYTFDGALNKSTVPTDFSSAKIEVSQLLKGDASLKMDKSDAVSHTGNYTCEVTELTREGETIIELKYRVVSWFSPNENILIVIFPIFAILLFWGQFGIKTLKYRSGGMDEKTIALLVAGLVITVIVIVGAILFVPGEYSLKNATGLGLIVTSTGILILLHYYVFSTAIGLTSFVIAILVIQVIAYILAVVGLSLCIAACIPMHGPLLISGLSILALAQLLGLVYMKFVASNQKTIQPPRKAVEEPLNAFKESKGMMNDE
Procedure: The binding ability of the antigen-binding protein to CHOK1-hCD47 cells (GenScript, M00581) highly expressing human CD47 was determined by flow cytometry FACS. Specifically, the cells were digested and resuspended in a DMEM complete medium, and the cell density was adjusted to 1×10^6 cells/mL. The cells were seeded in a 96-well V-bottom plate (Corning, #3894) at 100 µL/well, followed by the addition of test binding proteins diluted in a 3-fold gradient at a concentration that was 2 times the final concentration, each at 100 μL/well. The cells were incubated at 4° C. for 1 h away from light. Thereafter, the cells in each well were rinsed twice with 100 μL of pre-cooled PBS, and centrifuged at 500 g at 4° C. for 5 min, and then the supernatant was discarded. Thereafter, a fluorescent secondary antibody (Alexa Fluor 488-conjugated AffiniPure Goat Anti-Human IgG, Fcγ Fragment Specific, Jackson ImmunoResearch Inc., #109-545-098, diluted in a 1:500 ratio) was added at 100 μL/well, and the plate was incubated at 4° C. for 30 min away from light. The cells in each well were then rinsed twice with 100 μL of pre-cooled PBS and centrifuged at 500 g at 4° C. for 5 min, and then the supernatant was discarded. […] Fluorescence signal values were read using a BD FACS CANTOII flow cytometer, and the data were processed and analyzed using FlowJo v10 (FlowJo, LLC) software.

HCC1954 cells = test: Cytotoxic killing experiment (Example 8.5), HCC1954; settings: 72 h, CellTiter-Glo; proteins up to 30 nM, mc-vc-PAB-MMAE up to 60 nM
Procedure: This example was to study the cell killing activity of the anti-5T4 antibody coupling product PR004432-ADC against a human breast cancer cell strain HCC1954 (ATCC, CRL-2338) highly expressing human 5T4.
The HCC1954 cells were seeded in a 96-well plate (Perkin Elmer, #6005225) at 4000 cells/50 μL/well and incubated overnight at 37° C. with 5% CO2. Then, a test sample serially pre-diluted was added at 50 μL/well. PR004432, PR004432-ADC and PR004433-ADC were diluted at a 3-fold concentration gradient from the highest final concentration of 30 nM, and mc-vc-PAB-MMAE was diluted at a 3-fold concentration gradient from the highest final concentration of 60 nM. In addition, a well without the test sample was set as a control well. Thereafter, the plates were incubated at 37° C. with 5% CO2 for 72 h, a CellTiter-Glo cell viability detection reagent (Promega, #G7573) was added, then the plates were incubated at room temperature for at least 10 min to obtain stable luminescence signals, and the luminescence values were detected using a microplate reader. The cell viability was calculated based on the luminescence values by the following formula:
Cell viability (%)=(A/B)×100% […]
(§1) The data were processed and analyzed by plotting using GraphPad Prism 8 software, and binding curves of the antibodies to target cells, EC50 values and other parameters were obtained through four-parameter nonlinear fitting.

NCI-H929 cells [3] = test: Cytotoxic killing experiment (Example 7.5), NCI-H929; format: cell-based, human; settings: 72 h, CellTiter-Glo; PR001046-ADC at 0.1 μg/mL and above; PR001046 0.01-1 μg/mL; mc-vc-PAB-MMAE 0.1-10 nM
Text: The data were processed and analyzed by plotting using a GraphPad Prism 8 software. In this example, multiple groups of different PR001046-ADC samples were used, including samples containing different percentages of DAR=2 (D2) components before or after purification.

NCI-H929 cells [4] = test: Cytotoxic killing experiment (Example 9.5), NCI-H929; settings: 72 h, CellTiter-Glo; proteins up to 10 nM, mc-vc-PAB-MMAE up to 20 nM
Procedure: (§2) The HEK293T-hBCMA, NCI-H929, HEK293T and SNU-16 cells were seeded in 96-well plates (Perkin Elmer, #6005225) respectively, with the following seeded cell number: 2500 cells/50 μL/well (HEK293T-hBCMA), 5000 cells/50 μL/well (NCI-H929), 2500 cells/50 μL/well (HEK293T), and 5000 cells/50 μL/well (SNU-16). Then, the plates were incubated overnight at 37° C. with 5% CO2. Then, a test sample serially pre-diluted was added at 50 μL/well. PR004433, PR004433-ADC and PR004432-ADC were diluted at a 3-fold concentration gradient from the highest final concentration of 10 nM, and mc-vc-PAB-MMAE was diluted at a 3-fold concentration gradient from the highest final concentration of 20 nM. In addition, a well without the test sample was set as a control well. Thereafter, the plates were incubated at 37° C. with 5% CO2 for 72 h, a CellTiter-Glo cell viability detection reagent (Promega, #G7573) was added, then the plates were incubated at room temperature for at least 10 min to obtain stable luminescence signals, and the luminescence values were detected using a microplate reader. The cell viability was calculated based on the luminescence values by the following formula: […]
The data were processed and analyzed by plotting using GraphPad Prism 8 software, and binding curves of the antibodies to target cells, EC50 values and other parameters were obtained through four-parameter nonlinear fitting. […]

HEK293T-hBCMA cells = test: Cytotoxic killing experiment (Example 9.5), HEK293T-hBCMA; settings: 72 h, CellTiter-Glo; proteins up to 10 nM, mc-vc-PAB-MMAE up to 20 nM
Procedure: as §2, §1

Substance	Average DAR ([1]; Experiment 1, TCEP 1.5 equivalents)	Average DAR ([1]; Experiment 2, TCEP 2.0 equivalents)	Average DAR ([1]; Experiment 3, TCEP 3.0 equivalents)	binding activity to CD47 (CHOK1-hCD47 cells) [2]	cytotoxic killing against HCC1954 cells (HCC1954 cells)	cell killing of BCMA-positive cells NCI-H929 (NCI-H929 cells [3])	cytotoxic killing against NCI-H929 cells (NCI-H929 cells [4])	cytotoxic killing against HEK293T-hBCMA cells (HEK293T-hBCMA cells)
PR006345: SIRPa-Fc fusion protein: ALX148 SIRPa variant fused with human IgG1 hinge and Fc, SEQ ID NO: 149	1.89	2.23	2.91	strong specific binding activity	–	–	–	–
mc-vc-PAB-MMAE [reference compound]	–	–	–	–	only has a killing effect at the highest concentration (60 nM)	cannot effectively kill	cannot produce effective killing	cannot produce effective killing

Reference: patent US20240050583A1, “PROTEIN-DRUG CONJUGATE AND SITE-SPECIFIC CONJUGATING METHOD” (HARBOUR BIOMED (SHANGHAI) CO., LTD, priority 2020, published 2024)
